Source: paper PMC11741606 (2025)
Where a chain is given by its changes, count along the chain named.

Legend:
Experiment in all cases: SPR
[1] = target: T1, dAPN-Q746K-D750E ectodomain, hFc-tagged (dog (Canis lupus familiaris), UniProt P79143 33-975, Q746K | D750E)
T1 sequence: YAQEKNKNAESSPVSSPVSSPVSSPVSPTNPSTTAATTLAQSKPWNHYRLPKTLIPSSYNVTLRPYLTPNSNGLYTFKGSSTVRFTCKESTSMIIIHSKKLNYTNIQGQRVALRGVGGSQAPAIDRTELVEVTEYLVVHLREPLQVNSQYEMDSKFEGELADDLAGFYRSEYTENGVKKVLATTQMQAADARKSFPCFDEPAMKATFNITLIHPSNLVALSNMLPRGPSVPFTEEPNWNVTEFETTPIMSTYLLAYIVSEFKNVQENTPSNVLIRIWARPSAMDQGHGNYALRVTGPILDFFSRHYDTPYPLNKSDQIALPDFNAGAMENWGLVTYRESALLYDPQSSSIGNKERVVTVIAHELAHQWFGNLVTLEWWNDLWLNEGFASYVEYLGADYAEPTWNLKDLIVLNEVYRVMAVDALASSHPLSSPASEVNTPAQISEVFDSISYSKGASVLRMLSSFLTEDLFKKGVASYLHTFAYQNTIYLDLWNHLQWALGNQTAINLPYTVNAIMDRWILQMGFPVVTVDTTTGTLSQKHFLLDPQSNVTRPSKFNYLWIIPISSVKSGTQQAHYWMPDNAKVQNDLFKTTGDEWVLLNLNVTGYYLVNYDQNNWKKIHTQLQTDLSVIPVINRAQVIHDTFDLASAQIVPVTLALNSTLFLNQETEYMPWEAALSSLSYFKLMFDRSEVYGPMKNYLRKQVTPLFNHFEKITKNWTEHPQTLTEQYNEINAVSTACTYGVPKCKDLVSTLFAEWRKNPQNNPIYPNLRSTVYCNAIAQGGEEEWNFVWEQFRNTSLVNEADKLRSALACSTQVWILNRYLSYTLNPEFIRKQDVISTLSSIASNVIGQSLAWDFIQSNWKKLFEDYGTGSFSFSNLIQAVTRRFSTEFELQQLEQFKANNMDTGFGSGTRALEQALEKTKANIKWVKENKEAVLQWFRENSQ

[2] = target: T2, dAPN-Y797H ectodomain, hFc-tagged (dog (Canis lupus familiaris), UniProt P79143 33-975, Y797H)
T2 sequence: T1 sequence with K714Q, E718D, Y765H

[3] = target: Arabian camel aminopeptidase N ectodomain fused with the Fc domain of human IgG (Arabian camel (Camelus dromedarius))
[4] = target: red fox aminopeptidase N ectodomain fused with the Fc domain of human IgG (red fox (Vulpes vulpes))
[5] = target: horse aminopeptidase N ectodomain fused with the Fc domain of human IgG (horse (Equus caballus))
[6] = target: giant panda aminopeptidase N ectodomain fused with the Fc domain of human IgG (giant panda (Ailuropoda melanoleuca))

B1: TGEV RBD (receptor-binding domain of the transmissible gastroenteritis coronavirus spike protein) (domain or fragment)
chain: TANLNNGFYPVSSSEVGLVNKSVVLLPSFYTHTIVNITIDLGMKRSGYGQPIASTLSNITLPMQDNNTDVYCIRSDQFSVYVHSTCKSSLWDNIFKRNCTDVLDATAVIKTGTCPFSFDKLNNYLTFNKFCLSLSPVGANCKFDVAARTRTNEQVVRSLYVIYEEGDNIVGVPSD
In the case of B1, the Kd [1] is reported as 1540 nM, the Kd [2] is reported as 23.8 nM and the Kd [3] is reported as 6.36 µM. For the same binder, the Kd [4] was 462 nM, the Kd [5] was 2350 nM and the Kd [6] was 765 nM.
